Results taken from US20140348819A1, “Methods of Treating Cancer” (Dana-Farber Cancer Institute, Inc., priority 2011, published 2014).

Tested on: six V600E BRAF melanoma cell lines
Assay: Screening of recombinant RTK ligands for ability to confer resistance to BRAFi (PLX4720) or MEKi (PD184352) (Table 4)
Assay type: cell-based, human
Design: ability of recombinant RTK ligand to confer resistance / ability of recombinant RTK ligand to confer resistance (screening value): scale not given here
In short: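 Six V600E BRAF melanoma lines treated with PLX4720 or PD184352 after addition of 22 recombinant RTK ligands, scored for drug resistance. Activation of selected RTKs confirmed by western blotting and high-throughput tyrosine kinase phosphorylation profiling.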

B1: flt-3 ligand (FL) (protein, UniProt P49771 27-235, looked up)
Fms-related tyrosine kinase 3 …: TQDCSFQHSPISSDFAVKIRELSDYLLQDYPVTVASNLQDEELCGGLWRLVLAQRWMERLKTVAGSKMQGLLERVNTEIHFVTKCAFQPPPSCLRFVQTNISRLLQETSEQLVALKPWITRQNFSRCLELQCQPDSSTLPPPWSPRPLEATAPTAPQPPLLLLLLLPVGLLLLAAAWCLHWQRTRRRTPRPGEQVPPVPSPQDLLLVEH
A2058, PD184352 - 1 uM, ligand 0.4 ng/ml
  ability of recombinant RTK ligand to confer resistance: 1.03
A2058, PD184352 - 1 uM, ligand 1.6 ng/ml
  ability of recombinant RTK ligand to confer resistance: 0.99
A2058, PD184352 - 1 uM, ligand 6.25 ng/ml
  ability of recombinant RTK ligand to confer resistance: 1.00
A2058, PD184352 - 1 uM, ligand 25 ng/ml
  ability of recombinant RTK ligand to confer resistance: 1.02
A2058, PD184352 - 1 uM, ligand 100 ng/ml
  ability of recombinant RTK ligand to confer resistance: 0.89
A2058, PLX4720 - 2 uM, ligand 0.4 ng/ml
  ability of recombinant RTK ligand to confer resistance: 0.97
A2058, PLX4720 - 2 uM, ligand 1.6 ng/ml
  ability of recombinant RTK ligand to confer resistance: 0.98
A2058, PLX4720 - 2 uM, ligand 6.25 ng/ml
  ability of recombinant RTK ligand to confer resistance: 1.01
A2058, PLX4720 - 2 uM, ligand 25 ng/ml
  ability of recombinant RTK ligand to confer resistance: 1.06
A2058, PLX4720 - 2 uM, ligand 100 ng/ml
  ability of recombinant RTK ligand to confer resistance: 0.93
C32, PD184352 - 1 uM, ligand 0.4 ng/ml
  ability of recombinant RTK ligand to confer resistance: 1.02
C32, PD184352 - 1 uM, ligand 1.6 ng/ml
  ability of recombinant RTK ligand to confer resistance: 1.08
C32, PD184352 - 1 uM, ligand 6.25 ng/ml
  ability of recombinant RTK ligand to confer resistance: 1.10
C32, PD184352 - 1 uM, ligand 25 ng/ml
  ability of recombinant RTK ligand to confer resistance: 1.08
C32, PD184352 - 1 uM, ligand 100 ng/ml
  ability of recombinant RTK ligand to confer resistance: 1.07
C32, PLX4720 - 2 uM, ligand 0.4 ng/ml
  ability of recombinant RTK ligand to confer resistance: 0.99
C32, PLX4720 - 2 uM, ligand 1.6 ng/ml
  ability of recombinant RTK ligand to confer resistance: 0.97
C32, PLX4720 - 2 uM, ligand 6.25 ng/ml
  ability of recombinant RTK ligand to confer resistance: 1.00
C32, PLX4720 - 2 uM, ligand 25 ng/ml
  ability of recombinant RTK ligand to confer resistance: 0.87
C32, PLX4720 - 2 uM, ligand 100 ng/ml
  ability of recombinant RTK ligand to confer resistance: 0.97
Colo 829, PD184352 - 1 uM, ligand 0.4 ng/ml
  ability of recombinant RTK ligand to confer resistance: 1.07
Colo 829, PD184352 - 1 uM, ligand 1.6 ng/ml
  ability of recombinant RTK ligand to confer resistance: 0.98
Colo 829, PD184352 - 1 uM, ligand 6.25 ng/ml
  ability of recombinant RTK ligand to confer resistance: 0.97
Colo 829, PD184352 - 1 uM, ligand 25 ng/ml
  ability of recombinant RTK ligand to confer resistance: 1.05
Colo 829, PD184352 - 1 uM, ligand 100 ng/ml
  ability of recombinant RTK ligand to confer resistance: 0.97
Colo 829, PLX4720 - 2 uM, ligand 0.4 ng/ml
  ability of recombinant RTK ligand to confer resistance: 1.08
Colo 829, PLX4720 - 2 uM, ligand 1.6 ng/ml
  ability of recombinant RTK ligand to confer resistance: 0.98
Colo 829, PLX4720 - 2 uM, ligand 6.25 ng/ml
  ability of recombinant RTK ligand to confer resistance: 1.00
Colo 829, PLX4720 - 2 uM, ligand 25 ng/ml
  ability of recombinant RTK ligand to confer resistance: 1.05
Colo 829, PLX4720 - 2 uM, ligand 100 ng/ml
  ability of recombinant RTK ligand to confer resistance: 0.97
G-361, PD184352 - 1 uM, ligand 0.4 ng/ml
  ability of recombinant RTK ligand to confer resistance: 1.04
G-361, PD184352 - 1 uM, ligand 1.6 ng/ml
  ability of recombinant RTK ligand to confer resistance: 1.09
G-361, PD184352 - 1 uM, ligand 6.25 ng/ml
  ability of recombinant RTK ligand to confer resistance: 0.97
G-361, PD184352 - 1 uM, ligand 25 ng/ml
  ability of recombinant RTK ligand to confer resistance: 1.01
G-361, PD184352 - 1 uM, ligand 100 ng/ml
  ability of recombinant RTK ligand to confer resistance: 0.89
G-361, PLX4720 - 2 uM, ligand 0.4 ng/ml
  ability of recombinant RTK ligand to confer resistance: 1.00
G-361, PLX4720 - 2 uM, ligand 1.6 ng/ml
  ability of recombinant RTK ligand to confer resistance: 0.87
G-361, PLX4720 - 2 uM, ligand 6.25 ng/ml
  ability of recombinant RTK ligand to confer resistance: 0.88
G-361, PLX4720 - 2 uM, ligand 25 ng/ml
  ability of recombinant RTK ligand to confer resistance: 0.88
G-361, PLX4720 - 2 uM, ligand 100 ng/ml
  ability of recombinant RTK ligand to confer resistance: 0.79
SK-MEL-5, PD184352 - 1 uM, ligand 0.4 ng/ml
  ability of recombinant RTK ligand to confer resistance: 0.97
SK-MEL-5, PD184352 - 1 uM, ligand 1.6 ng/ml
  ability of recombinant RTK ligand to confer resistance: 0.97
SK-MEL-5, PD184352 - 1 uM, ligand 6.25 ng/ml
  ability of recombinant RTK ligand to confer resistance: 1.00
SK-MEL-5, PD184352 - 1 uM, ligand 25 ng/ml
  ability of recombinant RTK ligand to confer resistance: 0.92
SK-MEL-5, PD184352 - 1 uM, ligand 100 ng/ml
  ability of recombinant RTK ligand to confer resistance: 0.90
SK-MEL-5, PLX4720 - 2 uM, ligand 0.4 ng/ml
  ability of recombinant RTK ligand to confer resistance: 1.07
SK-MEL-5, PLX4720 - 2 uM, ligand 1.6 ng/ml
  ability of recombinant RTK ligand to confer resistance: 1.07
SK-MEL-5, PLX4720 - 2 uM, ligand 6.25 ng/ml
  ability of recombinant RTK ligand to confer resistance: 1.03
SK-MEL-5, PLX4720 - 2 uM, ligand 25 ng/ml
  ability of recombinant RTK ligand to confer resistance: 0.93
SK-MEL-5, PLX4720 - 2 uM, ligand 100 ng/ml
  ability of recombinant RTK ligand to confer resistance: 1.04
SK-MEL-28, PD184352 - 1 uM, ligand 0.4 ng/ml
  ability of recombinant RTK ligand to confer resistance: 1.04
SK-MEL-28, PD184352 - 1 uM, ligand 1.6 ng/ml
  ability of recombinant RTK ligand to confer resistance: 0.95
SK-MEL-28, PD184352 - 1 uM, ligand 6.25 ng/ml
  ability of recombinant RTK ligand to confer resistance: 0.98
SK-MEL-28, PD184352 - 1 uM, ligand 25 ng/ml
  ability of recombinant RTK ligand to confer resistance: 0.78
SK-MEL-28, PD184352 - 1 uM, ligand 100 ng/ml
  ability of recombinant RTK ligand to confer resistance: 0.99
SK-MEL-28, PLX4720 - 2 uM, ligand 0.4 ng/ml
  ability of recombinant RTK ligand to confer resistance: 0.94
SK-MEL-28, PLX4720 - 2 uM, ligand 1.6 ng/ml
  ability of recombinant RTK ligand to confer resistance: 0.90
SK-MEL-28, PLX4720 - 2 uM, ligand 6.25 ng/ml
  ability of recombinant RTK ligand to confer resistance: 0.86
SK-MEL-28, PLX4720 - 2 uM, ligand 25 ng/ml
  ability of recombinant RTK ligand to confer resistance: 0.82
SK-MEL-28, PLX4720 - 2 uM, ligand 100 ng/ml
  ability of recombinant RTK ligand to confer resistance: 0.98
